From EP2155781B1
No end group written: not given here.

What was measured:
[1] = molecular target: adrenomedullin receptors in the lungs of dogs (binding profile of the AM1 receptor, CRLR+RAMP2) (dog); experiment: displacement of iodine-marked hAM in dog lungs
[2] = molecular target: adrenomedullin receptors in the lungs of dogs (binding profile of the AM1 receptor, CRLR+RAMP2) (dog); experiment: cell-based or functional assay

| Molecule | IC50 [1] [nM] | other results |
| --- | --- | --- |
| human adrenomedullin hAM(1-52), cyclic (peptide) | 0.055 |  |
| unlabelled rAM(1-50) (from UniProt P43145 94-143) (peptide) |  | mean single-pass pulmonary extraction of 125I-rAM(1-50) in dogs after administration of unlabelled rAM(1-50) (100 nmol) [2]: 21.9% |
| CGRP (Phoenix Pharmaceuticals) (peptide) |  | mean single-pass pulmonary extraction of 125I-rAM(1-50) in dogs after CGRP (100 nmol) [2]: 40.6%; mean single-pass pulmonary extraction of 125I-rAM(1-50) in dogs, control before CGRP [2]: 44.6% |
| linear human adrenomedullin hAM(1-52) (peptide) | 7.1 |  |
| N-terminal acetylated human adrenomedullin (peptide) | 0.041 |  |
| 125I-rAM(1-50), 125I labelled rat adrenomedullin (from UniProt P43145 94-143) (peptide) |  | mean single-pass pulmonary extraction of 125I-rAM(1-50) in dogs in vivo (indicator dilution), baseline [2]: 36.4% |
| hCGRP (from UniProt P06881 83-119) (peptide) | 440 |  |
| TVQKLAHQIYQFTDKDKDNVAPRSKISPQGY-NH2 [hAM(22-52)] | 810 | mean single-pass pulmonary extraction of 125I-rAM(1-50) in dogs after hAM(22-52) (100 nmol) [2]: 31.4%; mean single-pass pulmonary extraction of 125I-rAM(1-50) in dogs before hAM(22-52) [2]: 40% |
| SFGCRFGTCTVQKLAHQIYQFTDKDKDNVAPRSKISPQGY-NH2 (ends and bridges not checked) [hAM(13-52)] | 34 |  |
| QVQNLSHRLWQLMGPAGRQDSAPVDPSSPHSY (peptide, UniProt Q7Z4H4 116-147, looked up, ends and bridges not checked) [hAM2(16-47)] | 980 |  |
| TQAQLLRVGCVLGTCQVQNLSHRLWQLMGPAGRQDSAPVDPSSPHSY (peptide, UniProt Q7Z4H4 101-147, looked up) [hAM2] | 480 |  |
